Patent publication EP4782466A1, “FUSION PROTEIN FOR INACTIVATING CORONAVIRUS AND USE THEREOF” (priority 2023, dated 2025)

Key:
Assay in all cases: cell-based or functional assay
[1] = target: S protein of SARS-CoV-2 Omicron BA.2.2 (SARS-CoV-2 BA.2.2)
[2] = target: S protein of SARS-CoV-2 Omicron BA.3 (SARS-CoV-2 BA.3)
[3] = target: S protein of SARS-CoV-2 Omicron BA.2 (SARS-CoV-2 BA.2)
[4] = target: S protein of SARS-CoV-2 Delta (B.1.617.2) (SARS-CoV-2 Delta (B.1.617.2))
[5] = target: S protein of SARS-CoV-2 Omicron BA.4.6 (SARS-CoV-2 BA.4.6)
[6] = target: S protein of SARS-CoV-2 Beta (B.1.351) (SARS-CoV-2 Beta (B.1.351))
[7] = target: S protein of SARS-CoV-2 Lambda (SARS-CoV-2 Lambda)
[8] = target: S protein of SARS-CoV-2 Omicron BF.7 (SARS-CoV-2 BF.7)
[9] = target: S protein of SARS-CoV-2 Omicron BA.2.9 (SARS-CoV-2 BA.2.9)
[10] = target: S protein of SARS-CoV-2 Alpha (B.1.1.7) (SARS-CoV-2 Alpha (B.1.1.7))
[11] = target: S protein of SARS-CoV-2 Omicron XBB (SARS-CoV-2 XBB)
[12] = target: S protein of SARS-CoV-2 Omicron BQ.1 (SARS-CoV-2 BQ.1)
[13] = target: S protein of SARS-CoV-2 Omicron BA.2.12.1 (SARS-CoV-2 BA.2.12.1)
[14] = target: S protein of SARS-CoV-2 Omicron BA.2.75 (SARS-CoV-2 BA.2.75)
[15] = target: S protein of SARS-CoV-2 Omicron BA.5 (SARS-CoV-2 BA.5)
[16] = target: S protein of SARS-CoV-2 Omicron BA.1 (SARS-CoV-2 BA.1)
[17] = target: S protein of SARS-CoV-2 Gamma (P.1) (SARS-CoV-2 Gamma (P.1))

“ACE2 protein alone (ACE2 peptidase domain alone) (from UniProt Q9BYF1 18-615) (receptor)” was tested, and the EC50, inactivation of pseudovirus (Caco-2, luciferase) [1] was 476 nM, the IC50, inhibition of pseudovirus infection (Caco-2, luciferase) [1] was 11.9 nM and the EC50, inactivation of pseudovirus (Caco-2, luciferase) [2] was 52.1 nM. For the same substance, the IC50, inhibition of pseudovirus infection (Caco-2, luciferase) [2] was 6.51 nM, the EC50, inactivation of pseudovirus (Caco-2, luciferase) [3] was 329 nM and the IC50, inhibition of pseudovirus infection (Caco-2, luciferase) [3] was 12.6 nM. For the same substance, the EC50, inactivation of pseudovirus (Caco-2, luciferase) [4] was 605 nM, the IC50, inhibition of pseudovirus infection (Caco-2, luciferase) [4] was 4.85 nM and the EC50, inactivation of pseudovirus (Caco-2, luciferase) [5] was 1160 nM. The IC50, inhibition of pseudovirus infection (Caco-2, luciferase) [5] was 65.9 nM, the EC50, inactivation of pseudovirus (Caco-2, luciferase) [6] was 123 nM and the IC50, inhibition of pseudovirus infection (Caco-2, luciferase) [6] was 16.1 nM. It also gave an EC50, inactivation of pseudovirus (Caco-2, luciferase) [7] of 116 nM, an IC50, inhibition of pseudovirus infection (Caco-2, luciferase) [7] of 12.8 nM and an EC50, inactivation of pseudovirus (Caco-2, luciferase) [8] of 192 nM. It also gave an IC50, inhibition of pseudovirus infection (Caco-2, luciferase) [8] of 101 nM, an EC50, inactivation of pseudovirus (Caco-2, luciferase) [9] of 407 nM and an IC50, inhibition of pseudovirus infection (Caco-2, luciferase) [9] of 7.63 nM. It also gave an EC50, inactivation of pseudovirus (Caco-2, luciferase) [10] of 243 nM, an IC50, inhibition of pseudovirus infection (Caco-2, luciferase) [10] of 6.2 nM and an EC50, inactivation of pseudovirus (Caco-2, luciferase) [11] of 212 nM. It also gave an IC50, inhibition of pseudovirus infection (Caco-2, luciferase) [11] of 12.7 nM, an EC50, inactivation of pseudovirus (Caco-2, luciferase) [12] of 149 nM and an IC50, inhibition of pseudovirus infection (Caco-2, luciferase) [12] of 21.8 nM. For the same substance, the EC50, inactivation of pseudovirus (Caco-2, luciferase) [13] was 76.1 nM, the IC50, inhibition of pseudovirus infection (Caco-2, luciferase) [13] was 10.6 nM and the EC50, inactivation of pseudovirus (Caco-2, luciferase) [14] was 677 nM. It also gave an IC50, inhibition of pseudovirus infection (Caco-2, luciferase) [14] of 26.5 nM, an EC50, inactivation of pseudovirus (Caco-2, luciferase) [15] of 336 nM and an IC50, inhibition of pseudovirus infection (Caco-2, luciferase) [15] of 15.3 nM. It also gave an EC50, inactivation of pseudovirus (Caco-2, luciferase) [16] of 82.2 nM, an IC50, inhibition of pseudovirus infection (Caco-2, luciferase) [16] of 18.7 nM and an EC50, inactivation of pseudovirus (Caco-2, luciferase) [17] of 88.5 nM. For the same substance, the IC50, inhibition of pseudovirus infection (Caco-2, luciferase) [17] was 15.1 nM.

“AL2E protein (ACE2-linker-EK1 fusion protein with (GGGGS)2 linker) (from UniProt Q9BYF1 18-615)” showed an IC50, inhibition of pseudovirus infection (Caco-2, luciferase) [1] of 0.4 nM, an IC50, inhibition of pseudovirus infection (Caco-2, luciferase) [2] of 0.58 nM and an IC50, inhibition of pseudovirus infection (Caco-2, luciferase) [3] of 0.16 nM. The IC50, inhibition of pseudovirus infection (Caco-2, luciferase) [4] was 0.32 nM, the IC50, inhibition of pseudovirus infection (Caco-2, luciferase) [5] was 1.03 nM and the IC50, inhibition of pseudovirus infection (Caco-2, luciferase) [6] was 0.27 nM. It also gave an IC50, inhibition of pseudovirus infection (Caco-2, luciferase) [7] of 0.09 nM, an IC50, inhibition of pseudovirus infection (Caco-2, luciferase) [8] of 0.46 nM and an IC50, inhibition of pseudovirus infection (Caco-2, luciferase) [9] of 0.43 nM. The IC50, inhibition of pseudovirus infection (Caco-2, luciferase) [10] was 0.22 nM, the IC50, inhibition of pseudovirus infection (Caco-2, luciferase) [11] was 0.64 nM and the IC50, inhibition of pseudovirus infection (Caco-2, luciferase) [12] was 0.4 nM. It also gave an IC50, inhibition of pseudovirus infection (Caco-2, luciferase) [13] of 0.26 nM, an IC50, inhibition of pseudovirus infection (Caco-2, luciferase) [14] of 0.69 nM and an IC50, inhibition of pseudovirus infection (Caco-2, luciferase) [15] of 0.1 nM. It also gave an IC50, inhibition of pseudovirus infection (Caco-2, luciferase) [16] of 0.18 nM and an IC50, inhibition of pseudovirus infection (Caco-2, luciferase) [17] of 0.39 nM.
